Assay results published in publication PMC9987375.

Columns and labels:
[1] = biological target: cytoplasmic dynein-1 heavy chain, naturally occurring in Vero cells (African green monkey (endogenous in Vero)); test: proximity ligation; Vero cells infected with ZIKV MR766 at MOI 1, fixed at 18 h.p.i.; mouse monoclonal anti-E and rabbit polyclonal anti-NTDyn; PLA dots counted in 100 cells
[2] = biological target: cytoplasmic dynein-1 heavy chain, naturally occurring in Vero cells (African green monkey (endogenous in Vero)); test: proximity ligation; Vero cells infected with ZIKV MR766 at MOI 1, fixed at 12 and 24 h.p.i.; mouse monoclonal anti-E and rabbit polyclonal anti-NTDyn

Zika virus (ZIKV) envelope protein (E), MR766 strain (natural protein)
PLA dots per cell (18 h.p.i.) (PLA dots per cell) [1]: > 6
PLA dots per cell (mean, 18 h.p.i.) (PLA dots per cell) [1]: 2.9
PLA dots per cell (12 and 24 h.p.i.) (PLA dots per cell) [2]: < 1
